{
  "source": "patent US20240139347A1",
  "about": "“COMPLEX, VASCULAR CONTRAST AGENT, X-RAY CONTRAST AGENT, METHOD FOR PRODUCING COMPLEX, AND IMAGING METHOD FOR CAPTURING STRUCTURAL CHANGE IN VESSEL” (TOHOKU UNIVERSITY, priority 2021, published 2024)",
  "origin": "cited, not measured here",
  "molecules": {"B1": {"name": "lactoferrin: lactoferrin (MW: 80 kDa), protein used in the complex of Example 1 (protein, UniProt P02788 20-710, looked up)", "Lactotransferrin": "GRRRSVQWCAVSQPEATKCFQWQRNMRKVRGPPVSCIKRDSPIQCIQAIAENRADAVTLDGGFIYEAGLAPYKLRPVAAEVYGTERQPRTHYYAVAVVKKGGSFQLNELQGLKSCHTGLRRTAGWNVPIGTLRPFLNWTGPPEPIEAAVARFFSASCVPGADKGQFPNLCRLCAGTGENKCAFSSQEPYFSYSGAFKCLRDGAGDVAFIRESTVFEDLSDEAERDEYELLCPDNTRKPVDKFKDCHLARVPSHAVVARSVNGKEDAIWNLLRQAQEKFGKDKSPKFQLFGSPSGQKDLLFKDSAIGFSRVPPRIDSGLYLGSGYFTAIQNLRKSEEEVAARRARVVWCAVGEQELRKCNQWSGLSEGSVTCSSASTTEDCIALVLKGEADAMSLDGGYVYTAGKCGLVPVLAENYKSQQSSDPDPNCVDRPVEGYLAVAVVRRSDTSLTWNSVKGKKSCHTAVDRTAGWNIPMGLLFNQTGSCKFDEYFSQSCAPGSDPRSNLCALCIGDEQGENKCVPNSNERYYGYTGAFRCLAENAGDVAFVKDVTVLQNTDGNNNEAWAKDLKLADFALLCLDGKRKPVTEARSCHLAMAPNHAVVSRMDKVERLKQVLLHQQAKFGRNGSDCPDKFCLFQSETKNLLFNDNTECLARLHGKTTYEKYLGPQYVAGITNLKKCSTSPLLEACEFLRK"}},
  "settings": "Y. Nojima et al., Pharm. Res. 26 (2009)",
  "data": [
    {"molecule": "B1", "values": [
      {"measurement": "half-life in blood of lactoferrin alone", "value": "about 7.8 min"}
    ]}
  ]
}
